The experiment has as its target human GLP-1 receptor (human, UniProt P43220). As to the kind of experiment: cell-based or functional assay.

Where no end group is shown, it is not given here. [ ]: non-standard residue; d: D form. Aib = CC(C)(N)C(=O)O

B1: [Aib8,Glu23,Val25,Gln26,Glu34,Ala35,Val36,Ala37]-GLP-1-(7-37)-peptidyl-Glu-Phe-Leu amide (peptide)
peptide: H[Aib]EGTFTSDVSSYLEGEAVQEFIAWLVEAVAEFL-NH2
modifications: N-terminus assumed
SMILES: CC[C@H](C)[C@H](NC(=O)[C@H](Cc1ccccc1)NC(=O)[C@H](CCC(=O)O)NC(=O)[C@H](CCC(N)=O)NC(=O)[C@@H](NC(=O)[C@H](C)NC(=O)[C@H](CCC(=O)O)NC(=O)CNC(=O)[C@H](CCC(=O)O)NC(=O)[C@H](CC(C)C)NC(=O)[C@H](Cc1ccc(O)cc1)NC(=O)[C@H](CO)NC(=O)[C@H](CO)NC(=O)[C@@H](NC(=O)[C@H](CC(=O)O)NC(=O)[C@H](CO)NC(=O)[C@@H](NC(=O)[C@H](Cc1ccccc1)NC(=O)[C@@H](NC(=O)CNC(=O)[C@H](CCC(=O)O)NC(=O)C(C)(C)NC(=O)[C@@H](N)Cc1c[nH]cn1)[C@@H](C)O)[C@@H](C)O)C(C)C)C(C)C)C(=O)N[C@@H](C)C(=O)N[C@@H](Cc1c[nH]c2ccccc12)C(=O)N[C@@H](CC(C)C)C(=O)N[C@H](C(=O)N[C@@H](CCC(=O)O)C(=O)N[C@@H](C)C(=O)N[C@H](C(=O)N[C@@H](C)C(=O)N[C@@H](CCC(=O)O)C(=O)N[C@@H](Cc1ccccc1)C(=O)N[C@@H](CC(C)C)C(N)=O)C(C)C)C(C)C
Regarding B1, the “CRE luciferase EC50, 0% HSA” value stood at 622 pM and the “CRE luciferase EC50, 1% HSA” value amounted to 273 pM.

B2: [Aib8,Glu23,Lys24,Val25,Glu30,His31,Glu34,Lys35,Phe36,Lys37]-GLP-1-(7-37)-peptidyl-Glu-Phe-Phe amide (peptide)
peptide: H[Aib]EGTFTSDVSSYLEGEKVKEFIEHLVEKFKEFF-NH2
modifications: N-terminus assumed
SMILES: CC[C@H](C)[C@H](NC(=O)[C@H](Cc1ccccc1)NC(=O)[C@H](CCC(=O)O)NC(=O)[C@H](CCCCN)NC(=O)[C@@H](NC(=O)[C@H](CCCCN)NC(=O)[C@H](CCC(=O)O)NC(=O)CNC(=O)[C@H](CCC(=O)O)NC(=O)[C@H](CC(C)C)NC(=O)[C@H](Cc1ccc(O)cc1)NC(=O)[C@H](CO)NC(=O)[C@H](CO)NC(=O)[C@@H](NC(=O)[C@H](CC(=O)O)NC(=O)[C@H](CO)NC(=O)[C@@H](NC(=O)[C@H](Cc1ccccc1)NC(=O)[C@@H](NC(=O)CNC(=O)[C@H](CCC(=O)O)NC(=O)C(C)(C)NC(=O)[C@@H](N)Cc1c[nH]cn1)[C@@H](C)O)[C@@H](C)O)C(C)C)C(C)C)C(=O)N[C@@H](CCC(=O)O)C(=O)N[C@@H](Cc1c[nH]cn1)C(=O)N[C@@H](CC(C)C)C(=O)N[C@H](C(=O)N[C@@H](CCC(=O)O)C(=O)N[C@@H](CCCCN)C(=O)N[C@@H](Cc1ccccc1)C(=O)N[C@@H](CCCCN)C(=O)N[C@@H](CCC(=O)O)C(=O)N[C@@H](Cc1ccccc1)C(=O)N[C@@H](Cc1ccccc1)C(N)=O)C(C)C
With B2, the “CRE luciferase EC50, 0% HSA” value was found to be 5420 pM and the “CRE luciferase EC50, 1% HSA” value worked out at 1160 pM.

B3: [Aib8,Val25,Gln27,Gln34,Lys35,Aib36,Lys37]-GLP-1-(7-37)-peptidyl-Gln-Phe-Leu amide (peptide)
peptide: H[Aib]EGTFTSDVSSYLEGQAVKQFIAWLVQK[Aib]KQFL-NH2
modifications: N-terminus assumed
SMILES: CC[C@H](C)[C@H](NC(=O)[C@H](Cc1ccccc1)NC(=O)[C@H](CCC(N)=O)NC(=O)[C@H](CCCCN)NC(=O)[C@@H](NC(=O)[C@H](C)NC(=O)[C@H](CCC(N)=O)NC(=O)CNC(=O)[C@H](CCC(=O)O)NC(=O)[C@H](CC(C)C)NC(=O)[C@H](Cc1ccc(O)cc1)NC(=O)[C@H](CO)NC(=O)[C@H](CO)NC(=O)[C@@H](NC(=O)[C@H](CC(=O)O)NC(=O)[C@H](CO)NC(=O)[C@@H](NC(=O)[C@H](Cc1ccccc1)NC(=O)[C@@H](NC(=O)CNC(=O)[C@H](CCC(=O)O)NC(=O)C(C)(C)NC(=O)[C@@H](N)Cc1c[nH]cn1)[C@@H](C)O)[C@@H](C)O)C(C)C)C(C)C)C(=O)N[C@@H](C)C(=O)N[C@@H](Cc1c[nH]c2ccccc12)C(=O)N[C@@H](CC(C)C)C(=O)N[C@H](C(=O)N[C@@H](CCC(N)=O)C(=O)N[C@@H](CCCCN)C(=O)NC(C)(C)C(=O)N[C@@H](CCCCN)C(=O)N[C@@H](CCC(N)=O)C(=O)N[C@@H](Cc1ccccc1)C(=O)N[C@@H](CC(C)C)C(N)=O)C(C)C
In the case of B3, the “CRE luciferase EC50, 0% HSA” value was 601 pM and the “CRE luciferase EC50, 1% HSA” value is 229 pM.

B4: [Aib8,Glu23,Val25,Gln26,Glu34,Gln35,Aib36,Gln37]-GLP-1-(7-37)-peptidyl-Glu-Phe-Leu amide (peptide)
peptide: H[Aib]EGTFTSDVSSYLEGEAVQEFIAWLVEQ[Aib]QEFL-NH2
modifications: N-terminus assumed
SMILES: CC[C@H](C)[C@H](NC(=O)[C@H](Cc1ccccc1)NC(=O)[C@H](CCC(=O)O)NC(=O)[C@H](CCC(N)=O)NC(=O)[C@@H](NC(=O)[C@H](C)NC(=O)[C@H](CCC(=O)O)NC(=O)CNC(=O)[C@H](CCC(=O)O)NC(=O)[C@H](CC(C)C)NC(=O)[C@H](Cc1ccc(O)cc1)NC(=O)[C@H](CO)NC(=O)[C@H](CO)NC(=O)[C@@H](NC(=O)[C@H](CC(=O)O)NC(=O)[C@H](CO)NC(=O)[C@@H](NC(=O)[C@H](Cc1ccccc1)NC(=O)[C@@H](NC(=O)CNC(=O)[C@H](CCC(=O)O)NC(=O)C(C)(C)NC(=O)[C@@H](N)Cc1c[nH]cn1)[C@@H](C)O)[C@@H](C)O)C(C)C)C(C)C)C(=O)N[C@@H](C)C(=O)N[C@@H](Cc1c[nH]c2ccccc12)C(=O)N[C@@H](CC(C)C)C(=O)N[C@H](C(=O)N[C@@H](CCC(=O)O)C(=O)N[C@@H](CCC(N)=O)C(=O)NC(C)(C)C(=O)N[C@@H](CCC(N)=O)C(=O)N[C@@H](CCC(=O)O)C(=O)N[C@@H](Cc1ccccc1)C(=O)N[C@@H](CC(C)C)C(N)=O)C(C)C
As to B4, the “CRE luciferase EC50, 0% HSA” value came out at 156 pM and the “CRE luciferase EC50, 1% HSA” value was 40 pM.

B5: [Aib8,Pro22,Glu23,Val25,Glu34,Lys35,Aib36,Lys37]-GLP-1-(7-37)-peptidyl-Glu-Phe-Leu amide (peptide)
peptide: H[Aib]EGTFTSDVSSYLEPEAVKEFIAWLVEK[Aib]KEFL-NH2
modifications: N-terminus assumed
SMILES: CC[C@H](C)[C@H](NC(=O)[C@H](Cc1ccccc1)NC(=O)[C@H](CCC(=O)O)NC(=O)[C@H](CCCCN)NC(=O)[C@@H](NC(=O)[C@H](C)NC(=O)[C@H](CCC(=O)O)NC(=O)[C@@H]1CCCN1C(=O)[C@H](CCC(=O)O)NC(=O)[C@H](CC(C)C)NC(=O)[C@H](Cc1ccc(O)cc1)NC(=O)[C@H](CO)NC(=O)[C@H](CO)NC(=O)[C@@H](NC(=O)[C@H](CC(=O)O)NC(=O)[C@H](CO)NC(=O)[C@@H](NC(=O)[C@H](Cc1ccccc1)NC(=O)[C@@H](NC(=O)CNC(=O)[C@H](CCC(=O)O)NC(=O)C(C)(C)NC(=O)[C@@H](N)Cc1c[nH]cn1)[C@@H](C)O)[C@@H](C)O)C(C)C)C(C)C)C(=O)N[C@@H](C)C(=O)N[C@@H](Cc1c[nH]c2ccccc12)C(=O)N[C@@H](CC(C)C)C(=O)N[C@H](C(=O)N[C@@H](CCC(=O)O)C(=O)N[C@@H](CCCCN)C(=O)NC(C)(C)C(=O)N[C@@H](CCCCN)C(=O)N[C@@H](CCC(=O)O)C(=O)N[C@@H](Cc1ccccc1)C(=O)N[C@@H](CC(C)C)C(N)=O)C(C)C
For B5, the “CRE luciferase EC50, 0% HSA” value came to 7530 pM and the “CRE luciferase EC50, 1% HSA” value stood at 936 pM.
The like results for HAEGTFTSDVSSYLEGQKAKEFIAWLVEGVKEFL-NH2 [[Lys24,Glu34,Val36,Lys37]-GLP-1-(7-37)-peptidyl-Glu-Phe-Leu amide] were, in that order, 702 pM and 112 pM.
The like results for HAEGTFTSDVSSYLEGQAAKEFIAWLVEKVKEFL-NH2 [[Glu34,Lys35,Val36,Lys37]-GLP-1-(7-37)-peptidyl-Glu-Phe-Leu amide] were, in that order, 116 pM and 23 pM.

B6: [Aib8,Glu23,Val25,Glu34,Lys35,Phe36,Lys37]-GLP-1-(7-37)-peptidyl-Glu-Phe-Phe amide (peptide)
peptide: H[Aib]EGTFTSDVSSYLEGEAVKEFIAWLVEKFKEFF-NH2
modifications: N-terminus assumed
SMILES: CC[C@H](C)[C@H](NC(=O)[C@H](Cc1ccccc1)NC(=O)[C@H](CCC(=O)O)NC(=O)[C@H](CCCCN)NC(=O)[C@@H](NC(=O)[C@H](C)NC(=O)[C@H](CCC(=O)O)NC(=O)CNC(=O)[C@H](CCC(=O)O)NC(=O)[C@H](CC(C)C)NC(=O)[C@H](Cc1ccc(O)cc1)NC(=O)[C@H](CO)NC(=O)[C@H](CO)NC(=O)[C@@H](NC(=O)[C@H](CC(=O)O)NC(=O)[C@H](CO)NC(=O)[C@@H](NC(=O)[C@H](Cc1ccccc1)NC(=O)[C@@H](NC(=O)CNC(=O)[C@H](CCC(=O)O)NC(=O)C(C)(C)NC(=O)[C@@H](N)Cc1c[nH]cn1)[C@@H](C)O)[C@@H](C)O)C(C)C)C(C)C)C(=O)N[C@@H](C)C(=O)N[C@@H](Cc1c[nH]c2ccccc12)C(=O)N[C@@H](CC(C)C)C(=O)N[C@H](C(=O)N[C@@H](CCC(=O)O)C(=O)N[C@@H](CCCCN)C(=O)N[C@@H](Cc1ccccc1)C(=O)N[C@@H](CCCCN)C(=O)N[C@@H](CCC(=O)O)C(=O)N[C@@H](Cc1ccccc1)C(=O)N[C@@H](Cc1ccccc1)C(N)=O)C(C)C
With B6, the “CRE luciferase EC50, 0% HSA” value amounted to 1220 pM and the “CRE luciferase EC50, 1% HSA” value was 431 pM.

B7: [Aib8,Val25,Glu34,Lys35,Aib36,Lys37]-GLP-1-(7-37)-peptidyl-Glu-Phe-Leu amide (peptide)
peptide: H[Aib]EGTFTSDVSSYLEGQAVKEFIAWLVEK[Aib]KEFL-NH2
modifications: N-terminus assumed
SMILES: CC[C@H](C)[C@H](NC(=O)[C@H](Cc1ccccc1)NC(=O)[C@H](CCC(=O)O)NC(=O)[C@H](CCCCN)NC(=O)[C@@H](NC(=O)[C@H](C)NC(=O)[C@H](CCC(N)=O)NC(=O)CNC(=O)[C@H](CCC(=O)O)NC(=O)[C@H](CC(C)C)NC(=O)[C@H](Cc1ccc(O)cc1)NC(=O)[C@H](CO)NC(=O)[C@H](CO)NC(=O)[C@@H](NC(=O)[C@H](CC(=O)O)NC(=O)[C@H](CO)NC(=O)[C@@H](NC(=O)[C@H](Cc1ccccc1)NC(=O)[C@@H](NC(=O)CNC(=O)[C@H](CCC(=O)O)NC(=O)C(C)(C)NC(=O)[C@@H](N)Cc1c[nH]cn1)[C@@H](C)O)[C@@H](C)O)C(C)C)C(C)C)C(=O)N[C@@H](C)C(=O)N[C@@H](Cc1c[nH]c2ccccc12)C(=O)N[C@@H](CC(C)C)C(=O)N[C@H](C(=O)N[C@@H](CCC(=O)O)C(=O)N[C@@H](CCCCN)C(=O)NC(C)(C)C(=O)N[C@@H](CCCCN)C(=O)N[C@@H](CCC(=O)O)C(=O)N[C@@H](Cc1ccccc1)C(=O)N[C@@H](CC(C)C)C(N)=O)C(C)C
As to B7, the “CRE luciferase EC50, 0% HSA” value turned out to be 161 pM and the “CRE luciferase EC50, 1% HSA” value turned out to be 74 pM.
For HAEGTFTSDVSSYLEGQAAKEFIAWLVEKVKEFLE-NH2 [[Glu34,Lys35,Val36,Lys37]-GLP-1-(7-37)-peptidyl-Glu-Phe-Leu-Glu amide] the same measures were 114 pM and 28 pM.
The like results for HGEGTFTSDVSSYLEGEAVKEFIAWLVEKVKEFLG [[Gly8,Glu23,Val25,Glu34,Lys35,Val36,Lys37]-GLP-1-(7-37)-peptidyl-Glu-Phe-Leu-Gly] were, in that order, 464 pM and 122 pM.

The values are drawn from patent US20150344540A1, “NOVEL GLP-1 RECEPTOR AGONISTS WITH CHOLESTEROL EFFLUX ACTIVITY” (NOVO NORDISK A/S, priority 2012, published 2015).
